According to paper PMC5750218, “Protein-inspired antibiotics active against vancomycin- and daptomycin-resistant bacteria” (Nature Communications, 2018):
Converted amounts (≈) assume the structure as drawn.

Columns and labels:
[1] = tested on: Bacillus subtilis ATCC 6633; test: microbe, parasite or virus in culture; type: cell-based
in vitro = conditions: human, 50% human plasma (pooled, sodium heparin) in PBS, pH 7.4
[2] = tested on: Vancomycin-intermediate S. aureus NRS1; test: microbe, parasite or virus in culture; conditions: Vancomycin-intermediate NRS1
Method in brief: (§1)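 Overnight cultures in MHB were diluted 40-fold and regrown 2–3 h at 37 °C, then exposed to twofold compound dilutions (8 to 0.003 µg mL^−1) for 24 h at 37 °C. The lowest concentration without visible growth was recorded as the MIC.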

[3] = tested on: Vancomycin-resistant (VanA) Enterococcus faecium ATCC 51559; test: microbe, parasite or virus in culture; conditions: ATCC 51559
Method in brief: as §1

[4] = tested on: Multi-drug-resistant S. pneumoniae ATCC 700677; test: microbe, parasite or virus in culture; conditions: ATCC 700677
Method in brief: as §1

[5] = 37 °C, 20 µM
Haemolysis assay = type: cell-based; conditions: human, whole blood

Which “Ac2Kaa concentration required to neutralise MIC activity” value ([1]; ATCC 6633, 48 h) does the source give for `CCCCCCCCCCCCCC(=O)N[C@@H](CCCCN)C(=O)N[C@@H](CCCCN)C(=O)N[C@@H](CCCCN)C(=O)N[C@@H](CCCCNC(=O)[C@H]1NC(=O)[C@H]2NC(=O)[C@H](NC(=O)[C@@H]3NC(=O)[C@H](CC(N)=O)NC(=O)[C@H](NC(=O)[C@@H](CC(C)C)NC)[C@H](O)c4ccc(c(Cl)c4)Oc4cc3cc(c4O[C@@H]3O[C@H](CO)[C@@H](O)[C@H](O)[C@H]3O[C@H]3C[C@](C)(N)[C@H](O)[C@H](C)O3)Oc3ccc(cc3Cl)[C@H]2O)c2ccc(O)c(c2)-c2c(O)cc(O)cc21)C(=O)O` [Compound 17, nC13CO-KKK-K(Vancomycin)-OH] here?
The value was 400 µg/mL.

What about the MIC ([1]; ATCC 6633, 48 h) of the same compound?
Its MIC is no more than 0.004 µg/mL.

What about the “Molar excess of Ac2Kaa ligand required to antagonise antibacterial activity” value ([1]; [ligand]/[antibiotic], B. subtilis ATCC 6633, 24 h) of the same compound?
The value was 29,472.

What about the remaining at 1 h, 20 µM (in vitro) of the same compound?
The remaining at 1 h, 20 µM was 79%.

What about the remaining at 3 h, 20 µM (in vitro) of the same compound?
The remaining at 3 h, 20 µM was 79%.

And the remaining at 6 h, 20 µM (in vitro)?
Its remaining at 6 h, 20 µM is 62%.

And the remaining at 24 h, 20 µM (in vitro)?
The remaining at 24 h, 20 µM was 66%.

What about the “MIC VISA” value [2] of the same compound?
Its value is 0.03 µg/mL (≈ 13.8 nM).

What about the “MIC VRE” value [3] of the same compound?
The value was 0.125 µg/mL (≈ 57.5 nM).

What about the “MIC MDR S.P.” value [4] of the same compound?
Its value is less than 0.003 µg/mL.

And the “% compound remaining after incubation in 50% human plasma, 0h” value [5]?
Its value is 100%.

What about the hemolysis at 3 h (Haemolysis assay; 25 µg mL-1) of the same compound?
Its hemolysis at 3 h is 0.15%.

And the hemolysis at 3 h (Haemolysis assay; 50 µg mL-1)?
The hemolysis at 3 h was 0.75%.

What about the hemolysis at 3 h (Haemolysis assay; 100 µg mL-1) of the same compound?
The hemolysis at 3 h was 0.65%.

What about the hemolysis at 3 h (Haemolysis assay; 200 µg mL-1) of the same compound?
Its hemolysis at 3 h is 0.85%.

What about the hemolysis at 3 h (Haemolysis assay; 400 µg mL-1) of the same compound?
The hemolysis at 3 h was 0.5%.

And the hemolysis at 3 h (Haemolysis assay; 800 µg mL-1)?
The hemolysis at 3 h was 1%.

What about the hemolysis at 3 h (Haemolysis assay; 1600 µg mL-1) of the same compound?
The hemolysis at 3 h was 1.55%.
